Laboratory results taken from patent publication US20140348747A1.

Assays:
Assay in all cases: cell-based or functional assay
[1] = target: wild-type non-luminescent polypeptide (WT fragment of residues 1-156 of NanoLuc)
NLpep53-HT = target: NLpep53-HT
NLpep9-HT = target: NLpep9-HT

Substance | luminescence after complementation (relative; unit not given) [1] | luminescence after complementation (RLU(mutant)/RLU(WT)) (NLpep53-HT) | luminescence after complementation (RLU(mutant)/RLU(WT)) (NLpep9-HT)
HT-NLpep A169E | 0.846 |  | 
HT-NLpep A169L | 1.11 |  | 
HT-NLpep A169N | 0.911 |  | 
HT-NLpep A169R | 0.985 |  | 
HT-NLpep A169T | 0.945 |  | 
HT-NLpep C164N | 0.0874 |  | 
HT-NLpep C164T | 0.0116 |  | 
HT-NLpep G157D | 0.114 |  | 
HT-NLpep G157E | 0.196 |  | 
HT-NLpep G157H | 0.938 |  | 
HT-NLpep G157N | 0.641 |  | 
HT-NLpep G157S | 1.99 |  | 
HT-NLpep I167E | 0.277 |  | 
HT-NLpep I167F | 0.283 |  | 
HT-NLpep I167Q | 0.0178 |  | 
HT-NLpep I167R | 0.0464 |  | 
HT-NLpep I167V | 0.877 |  | 
HT-NLpep L163K | 0.0885 |  | 
HT-NLpep L163T | 0.0259 |  | 
HT-NLpep L163V | 0.173 |  | 
HT-NLpep L163Y | 0.0512 |  | 
HT-NLpep R166K | 1.09 |  | 

Substance | luminescence after complementation (relative; unit not given) [1] | luminescence after complementation (RLU(mutant)/RLU(WT)) (NLpep53-HT) | luminescence after complementation (RLU(mutant)/RLU(WT)) (NLpep9-HT)
HT-NLpep R166N | 0.103 |  | 
HT-NLpep T159K | 0.049 |  | 
HT-NLpep T159Q | 0.398 |  | 
HT-NLpep T159V | 0.566 |  | 
HT-NLpep V158A | 0.135 |  | 
HT-NLpep V158I | 0.608 |  | 
HT-NLpep V158K | 0.077 |  | 
HT-NLpep V158Q | 0.0445 |  | 
HT-NLpep V158S | 0.0487 |  | 
HT-NLpep W161K | 0.0002 |  | 
HT-NLpep W161T | 0.0028 |  | 
HT-NLpep W161V | 0.0086 |  | 
NLpep-HT A169E | 0.789 |  | 
NLpep-HT A169L | 0.905 |  | 
NLpep-HT A169N | 1.78 |  | 
NLpep-HT A169R | 0.501 |  | 
NLpep-HT A169T | 1.37 |  | 
NLpep-HT C164A | 0.0858 |  | 
NLpep-HT C164F | 13.3 |  | 
NLpep-HT C164H | 0.76 |  | 
NLpep-HT C164K | 0.0005 |  | 
NLpep-HT C164L | 1.02 |  | 

Substance | luminescence after complementation (relative; unit not given) [1] | luminescence after complementation (RLU(mutant)/RLU(WT)) (NLpep53-HT) | luminescence after complementation (RLU(mutant)/RLU(WT)) (NLpep9-HT)
NLpep-HT C164M | 3.26 |  | 
NLpep-HT C164N | 0.108 |  | 
NLpep-HT C164Q | 0.0211 |  | 
NLpep-HT C164S | 0.0202 |  | 
NLpep-HT C164T | 0.0084 |  | 
NLpep-HT C164Y | 1.01 |  | 
NLpep-HT G157C | 0.0468 |  | 
NLpep-HT G157D | 0.549 |  | 
NLpep-HT G157E | 1.45 |  | 
NLpep-HT G157H | 0.573 |  | 
NLpep-HT G157N | 3.31 |  | 
NLpep-HT G157P | 0.0543 |  | 
NLpep-HT G157S | 1.72 |  | 
NLpep-HT I167E | 0.244 |  | 
NLpep-HT I167F | 0.179 |  | 
NLpep-HT I167Q | 0.117 |  | 
NLpep-HT I167R | 0.0469 |  | 
NLpep-HT I167V | 1.08 |  | 
NLpep-HT L163I | 0.292 |  | 
NLpep-HT L163K | 0.0786 |  | 
NLpep-HT L163T | 0.0262 |  | 
NLpep-HT L163V | 0.119 |  | 

Substance | luminescence after complementation (relative; unit not given) [1] | luminescence after complementation (RLU(mutant)/RLU(WT)) (NLpep53-HT) | luminescence after complementation (RLU(mutant)/RLU(WT)) (NLpep9-HT)
NLpep-HT L163Y | 0.196 |  | 
NLpep-HT R166K | 1.21 |  | 
NLpep-HT R166N | 0.118 |  | 
NLpep-HT T159K | 0.0307 |  | 
NLpep-HT T159Q | 0.031 |  | 
NLpep-HT T159V | 0.0455 |  | 
NLpep-HT V158A | 0.144 |  | 
NLpep-HT V158I | 1.6 |  | 
NLpep-HT V158K | 0.192 |  | 
NLpep-HT V158Q | 0.0397 |  | 
NLpep-HT V158S | 0.0838 |  | 
NLpep-HT W161E | 0.0012 |  | 
NLpep-HT W161F | 0.0717 |  | 
NLpep-HT W161K | 0.0008 |  | 
NLpep-HT W161T | 0.01 |  | 
NLpep-HT W161V | 0.005 |  | 
NLpep-HT W161Y | 0.215 |  | 
NLpoly D108N |  | 1.88 | 2.08
NLpoly F31I |  | 2.83 | 4.1
NLpoly F31L |  | 2.86 | 3.13
NLpoly F31V |  | 2.12 | 2.12
NLpoly G15S |  | 2.34 | 1.98

Substance | luminescence after complementation (relative; unit not given) [1] | luminescence after complementation (RLU(mutant)/RLU(WT)) (NLpep53-HT) | luminescence after complementation (RLU(mutant)/RLU(WT)) (NLpep9-HT)
NLpoly G67D |  | 1.57 | 1.78
NLpoly G67S |  | 1.29 | 1.22
NLpoly I56N |  | 1.81 | 0.44
NLpoly I59T |  | 1.35 | 1.07
NLpoly K75E |  | 2.05 | 2.08
NLpoly L18Q |  | 2.99 | 3.81
NLpoly L149M |  | 2.16 | 2.89
NLpoly M106I |  | 1.31 | 1.27
NLpoly M106V |  | 1.4 | 1.3
NLpoly N33K |  | 1.76 | 2.15
NLpoly N33R |  | 1.56 | 2.1
NLpoly N144T |  | 2.26 | 3.69
NLpoly N156D |  | 1.21 | 1.57
NLpoly N156S |  | 1.4 | 1.04
NLpoly Q20K |  | 2.33 | 4.43
NLpoly Q32R |  | 1.04 | 1.52
NLpoly R11N |  | 2.09 | 3.37
NLpoly R112N |  | 1.45 | 1.61
NLpoly T13I |  | 1.44 | 2.18
NLpoly V27M |  | 1.7 | 1.99
NLpoly V58A |  | 1.07 | 1.88
NLpoly V157D |  | 3.02 | 4.98
